Experimental data from US20250101087A1 (AbbVie / Abbott, published 2025).
Square brackets hold non-standard residues; d marks the D form. Primed or numbered codes have the meaning given here. Ends that are not written are not given here. pGlu = O=C1CC[C@@H](C(=O)O)N1; Biotin′ = not defined here

B1: Comparator Ab1 (antibody, human IgG1, kappa, V domains shown)
VH: QVQLVQSGAEVKKPGSSVKVSCKASGYDFTRYYINWVRQAPGQGLEWMGWINPGSGNTKYNEKFKGRVTITADESTSTAYMELSSLRSEDTAVYYCAREGITVYWGQGTTVTVSS
VL: DIVMTQTPLSLSVTPGQPASISCKSSQSLLYSRGKTYLNWLLQKPGQSPQLLIYAVSKLDSGVPDRFSGSGSGTDFTLKISRVEAEDVGVYYCVQGTHYPFTFGQGTKLEIKR
notes: Detected with anti-human IgG in the in vivo study; also called comparator antibody Ab1
B2: AC-264713, hu Aβ (AC-264713) [hu IgG1/K] (antibody, V domains shown)
VH: EVQLQESGPGLVKPSQTLSLTCTFSGFSLSTSGMGVSWIRQPPGKGLEWLAHIYWDDDKRYNPYMKRRLTISKDTSKNQVSLKISSVTAADTAVYYCARRADDYDVGFAYWGQGTLVTVSS
VL: DIQMTQSPSSVSASVGDRVTITCLASQTIGTWLAWYQQKPGKSPKLLIYAATSLADGVPSRFSGSGSGTDFTLTISSLQPEDFATYYCQQLYSSPFTFGQGTKLEIKR
notes: It is the only humanized antibody described

What was measured:
[1] = biological target: T1, amyloid plaques in human AD brain tissue (human, UniProt P05067 674-713); assay: immunostaining of unfixed human AD cortex sections, % area covered, 6 donors fitted together
T1 construct: Target presented in tissue sections; also called plaques in AD brain tissue
T1 sequence (P05067 674-713): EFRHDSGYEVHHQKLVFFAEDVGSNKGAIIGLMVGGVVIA

[2] = biological target: human Aβ 1-40 fibrils (human); assay: direct binding ELISA
[3] = biological target: T2, Mouse/Rat Aβ 1-40 (mouse/rat); assay: direct binding ELISA
T2 construct: also called Aβ1-40 from rat and mouse
T2 peptide: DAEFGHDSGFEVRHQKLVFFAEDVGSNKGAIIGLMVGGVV

[4] = biological target: T1, amyloid plaques in human AD brain tissue; assay: immunostaining of unfixed human AD cortex sections with biotinylated antibody, % area covered, 6 donors fitted together
Method: Unfixed, 20 μm tissue sections were prepared from cerebral cortex of human cadaver AD brain using a cryostat and were thaw-mounted onto glass slides. The tissue sections were then incubated in Tris-buffered saline (TBS) containing 0.3% H₂O₂ for 10 minutes. After three washes with TBS, the sections were incubated in TBS containing 3% milk for 30 minutes. […] After three washes with TBS, the immunoreactivity was visualized by incubation in 1:400 ABC Elite for one hour followed by DAB for five minutes.
The images were acquired from all the samples using a slide scanner. […] Using the software, the gray matter was outlined, and the “threshold” was determined by an observer who was blind to the staining conditions. The threshold was set so that the DAB signal was recognized by the software and the background/non-specific staining was excluded from the analysis. Once an appropriate threshold was set, the software measured the percentage of the area of interest containing the positive signal.
A nonlinear regression analysis was carried out using Prism Version 9.1.0 (Graph Pad Software). A variable slope model, 9% area covered by IR=Bottom+(X^{HillSlope})*(Top−Bottom)/(X^{HillSlope}+EC₅₀^{HillSlope}), was used, where Bottom was fixed to zero, and Top was fixed to 10% as the typical total area covered by plaques. Data for all six donors were analyzed in a combined data fit.

[5] = biological target: T3, pEG6 Pyr …-Biotin (human); assay: direct binding ELISA, peptide coated 100 ng/well, average ± SD of three experiments
T3 peptide: [pGlu]FRGDSGYEVHHQK-{Biotin′}
Method: (§1) Recombinant human Aβ biotinylated peptides were diluted in distilled water. Aβ peptides were diluted to a working concentration of 2 μg/mL, and 50 μL per well (100 ng/well) was added to 96-well half area high-binding ELISA plates. The plates were incubated overnight at 4° C. shaking at 100 rpm. Following coating, the plates were washed four times with 190 µL/well of 1×PBS using an automated plate washer. The plates were blocked with 190 µL/well of 2% BSA in DPBS and incubated for 1 hr. at RT. Reagents for ELISA were diluted in 0.25% BSA in DPBS.
(§2) After incubation for blocking, plates were washed four times with 190 μL/well of 1×PBS using automated plate washer. […] The plates were incubated for 30 min at RT. After four washes with PBS, 50 μL of TMB substrate was added into each well, and the plates were incubated at RT for about 5-10 min until color developed. The reaction was stopped by adding 50 μL per well of 2N sulfuric acid. Plates were read on a ClarioStar plate reader to obtain the absorbance at 450 nm (OD₄₅₀). […] Three independent experiments were performed.

[6] = biological target: T4, pEF10 Pyr …-Biotin (human); assay: as above
T4 peptide: [pGlu]FRHDSGGEVHHQK-{Biotin′}
Method: as §1, §2

[7] = biological target: T5, pE3-16 Pyr-…-Biotin (human); assay: as above
T5 peptide: [pGlu]FRHDSGYEVHHQK-{Biotin′}
Method: as §1, §2

[8] = biological target: T6, pEG7 Pyr …-Biotin (human); assay: as above
T6 peptide: [pGlu]FRHGSGYEVHHQK-{Biotin′}
Method: as §1, §2

[9] = biological target: T7, E3-16-EFRHDSGYEVHHQK-Biotin (human); assay: as above
T7 construct: N-terminal glutamate is not pyroglutamated
T7 peptide: EFRHDSGYEVHHQK-{Biotin′}
Method: as §1, §2

[10] = biological target: T8, pEG8 Pyr …-Biotin (human); assay: as above
T8 peptide: [pGlu]FRHDGGYEVHHQK-{Biotin′}
Method: as §1, §2

Binder	EC50 [1]	binding result [2]	binding result [3]	EC50 [4]	EC50 [5]	EC50 [6]	EC50 [7]	EC50 [8]	EC50 [9]	EC50 [10]
B1	12 µg/mL									
B2		no binding	no binding	0.4 µg/mL	0.5 nM	0.5 nM	0.3 nM	0.4 nM	0.9 nM	0.4 nM
